Consider two molecules from article PMC4851370, “The N-Terminus of the Floral Arabidopsis TGA Transcription Factor PERIANTHIA Mediates Redox-Sensitive DNA-Binding”.

What all share (conditions): protein: ivt; tags: none; chain copies: 2; label: 5' 32P; blunt
Data set [1] addresses T1, PANΔN (Arabidopsis thaliana, UniProt Q9SX27 167-452, del1-166).
T1 sequence: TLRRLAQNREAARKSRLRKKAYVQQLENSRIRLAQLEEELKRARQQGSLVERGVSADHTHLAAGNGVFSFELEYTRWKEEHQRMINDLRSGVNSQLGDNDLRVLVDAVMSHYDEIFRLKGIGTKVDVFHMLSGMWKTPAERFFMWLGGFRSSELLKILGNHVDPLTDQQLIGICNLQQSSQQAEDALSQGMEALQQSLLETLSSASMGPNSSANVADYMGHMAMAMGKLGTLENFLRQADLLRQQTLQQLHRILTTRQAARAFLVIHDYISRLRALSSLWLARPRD
Put plainly: EMSA; 2 mM diamide; no reduction; EMSA as in cited ref 20 (buffer, salt, pH, temperature not given); with or without 0.9 or 20 mM DTT or 2 mM diamide, 30 min in the dark before probe addition. In general terms: Mobility shift assays separate free from complexed probe on a gel.

Data set [2] deals with T2, … (PAN) (Arabidopsis thaliana, UniProt Q9SX27 1-452).
T2 sequence: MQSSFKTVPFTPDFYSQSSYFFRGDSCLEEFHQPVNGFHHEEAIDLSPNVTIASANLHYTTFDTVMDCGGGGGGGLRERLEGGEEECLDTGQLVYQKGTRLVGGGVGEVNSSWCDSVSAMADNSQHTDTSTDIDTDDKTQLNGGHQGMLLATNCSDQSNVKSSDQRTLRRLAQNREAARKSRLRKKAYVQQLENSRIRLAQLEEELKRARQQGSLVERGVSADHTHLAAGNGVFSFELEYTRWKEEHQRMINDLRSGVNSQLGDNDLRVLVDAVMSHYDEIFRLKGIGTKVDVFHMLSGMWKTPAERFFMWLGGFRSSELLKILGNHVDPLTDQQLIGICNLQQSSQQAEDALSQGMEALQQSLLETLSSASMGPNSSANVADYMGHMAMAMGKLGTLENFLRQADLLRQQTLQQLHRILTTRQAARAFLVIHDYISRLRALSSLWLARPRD
Put plainly: EMSA; EMSA as in cited ref 20 (buffer, salt, pH, temperature not given); with or without 0.9 or 20 mM DTT or 2 mM diamide, 30 min in the dark before probe addition.

The target in data set [3] is T3, PANC27SC68SC87SC114SC154S (Arabidopsis thaliana, UniProt Q9SX27 1-452, C27S;C68S;C87S;C114S;C154S).
T3 sequence: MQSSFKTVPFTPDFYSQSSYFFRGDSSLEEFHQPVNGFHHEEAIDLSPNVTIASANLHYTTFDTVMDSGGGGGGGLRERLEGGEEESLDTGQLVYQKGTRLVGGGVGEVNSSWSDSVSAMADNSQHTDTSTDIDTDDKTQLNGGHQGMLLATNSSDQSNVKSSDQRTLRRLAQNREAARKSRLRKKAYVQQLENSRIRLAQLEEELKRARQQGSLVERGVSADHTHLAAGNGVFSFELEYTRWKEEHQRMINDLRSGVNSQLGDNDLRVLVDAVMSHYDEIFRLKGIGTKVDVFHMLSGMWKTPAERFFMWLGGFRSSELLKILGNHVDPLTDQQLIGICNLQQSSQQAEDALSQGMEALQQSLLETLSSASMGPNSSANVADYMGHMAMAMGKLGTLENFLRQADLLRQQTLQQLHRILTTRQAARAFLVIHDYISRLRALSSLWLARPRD
As to the kind of experiment: EMSA; 2 mM diamide; no inhibition; EMSA as in cited ref 20 (buffer, salt, pH, temperature not given); with or without 0.9 or 20 mM DTT or 2 mM diamide, 30 min in the dark before probe addition.

The target in data set [4] is T4, PANC27SC68SC87SC114SC154SC340S (PAN6xCysmut) (Arabidopsis thaliana, UniProt Q9SX27 1-452, C27S;C68S;C87S;C114S;C154S;C340S).
T4 sequence: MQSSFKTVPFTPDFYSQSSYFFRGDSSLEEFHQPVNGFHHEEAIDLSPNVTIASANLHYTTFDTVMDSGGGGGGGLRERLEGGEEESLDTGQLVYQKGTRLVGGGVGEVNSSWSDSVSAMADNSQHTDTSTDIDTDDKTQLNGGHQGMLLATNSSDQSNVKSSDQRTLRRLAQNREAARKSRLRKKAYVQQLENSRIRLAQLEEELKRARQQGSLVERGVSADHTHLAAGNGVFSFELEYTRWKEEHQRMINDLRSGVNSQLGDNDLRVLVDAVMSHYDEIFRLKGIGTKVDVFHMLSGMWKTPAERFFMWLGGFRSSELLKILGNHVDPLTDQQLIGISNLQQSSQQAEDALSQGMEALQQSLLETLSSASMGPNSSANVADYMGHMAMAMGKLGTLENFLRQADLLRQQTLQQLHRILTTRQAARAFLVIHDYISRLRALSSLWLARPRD
Described as above.

In data set [5] the target is T5, TGA2 (Arabidopsis thaliana, UniProt P43273 1-330).
T5 sequence: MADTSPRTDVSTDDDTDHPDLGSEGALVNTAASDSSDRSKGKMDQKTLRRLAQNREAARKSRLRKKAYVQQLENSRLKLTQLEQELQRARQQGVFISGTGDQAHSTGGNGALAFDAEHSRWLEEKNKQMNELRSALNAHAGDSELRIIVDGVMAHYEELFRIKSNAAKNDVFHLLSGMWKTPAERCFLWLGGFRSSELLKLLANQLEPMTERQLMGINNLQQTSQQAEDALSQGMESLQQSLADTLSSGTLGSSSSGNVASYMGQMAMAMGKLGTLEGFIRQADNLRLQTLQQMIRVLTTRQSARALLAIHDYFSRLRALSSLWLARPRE
Put plainly: EMSA; 0.9 mM DTT; EMSA as in cited ref 20 (buffer, salt, pH, temperature not given); with or without 0.9 or 20 mM DTT or 2 mM diamide, 30 min in the dark before probe addition.

For data set [6], the target named is T6, TGA1 (Arabidopsis thaliana, UniProt Q39237 1-368).
T6 sequence: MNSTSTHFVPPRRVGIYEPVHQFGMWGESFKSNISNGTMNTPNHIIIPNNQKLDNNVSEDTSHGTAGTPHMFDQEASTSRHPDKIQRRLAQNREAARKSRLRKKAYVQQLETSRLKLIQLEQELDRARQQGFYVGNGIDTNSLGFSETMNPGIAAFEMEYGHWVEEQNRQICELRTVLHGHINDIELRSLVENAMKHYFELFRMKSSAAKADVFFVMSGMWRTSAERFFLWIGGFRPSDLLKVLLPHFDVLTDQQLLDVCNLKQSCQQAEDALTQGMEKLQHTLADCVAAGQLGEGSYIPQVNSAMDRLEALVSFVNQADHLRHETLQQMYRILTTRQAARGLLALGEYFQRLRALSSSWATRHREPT
Described as above.

Data set [7] has as its target T7, TGA10 (Arabidopsis thaliana, UniProt E3VNM4 1-460).
T7 sequence: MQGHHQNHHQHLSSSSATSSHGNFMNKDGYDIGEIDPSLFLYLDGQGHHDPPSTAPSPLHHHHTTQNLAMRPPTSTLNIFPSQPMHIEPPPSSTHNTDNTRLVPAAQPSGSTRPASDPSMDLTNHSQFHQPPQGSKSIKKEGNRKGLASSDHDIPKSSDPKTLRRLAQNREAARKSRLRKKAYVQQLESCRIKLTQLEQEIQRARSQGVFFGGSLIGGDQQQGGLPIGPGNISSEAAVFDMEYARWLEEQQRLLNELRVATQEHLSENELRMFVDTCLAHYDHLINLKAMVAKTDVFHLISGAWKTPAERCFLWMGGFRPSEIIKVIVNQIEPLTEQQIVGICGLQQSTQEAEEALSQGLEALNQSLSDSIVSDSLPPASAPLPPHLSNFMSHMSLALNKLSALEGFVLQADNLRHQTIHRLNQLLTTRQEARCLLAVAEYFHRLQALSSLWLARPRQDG
The data set is described as above.

Data set [8] deals with T8, TGA3 (Arabidopsis thaliana, UniProt Q39234 1-384).
T8 sequence: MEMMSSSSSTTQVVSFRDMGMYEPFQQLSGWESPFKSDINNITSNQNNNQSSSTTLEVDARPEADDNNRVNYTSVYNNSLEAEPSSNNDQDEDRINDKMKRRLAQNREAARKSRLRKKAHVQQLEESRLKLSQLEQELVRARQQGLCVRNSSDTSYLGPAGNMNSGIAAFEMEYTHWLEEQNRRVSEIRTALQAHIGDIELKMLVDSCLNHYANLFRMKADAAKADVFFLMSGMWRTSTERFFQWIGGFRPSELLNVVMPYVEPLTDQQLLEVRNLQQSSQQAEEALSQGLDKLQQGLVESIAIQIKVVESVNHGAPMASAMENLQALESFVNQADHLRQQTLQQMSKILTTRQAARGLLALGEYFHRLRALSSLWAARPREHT
The data set is described as above.

In data set [9] the target is T9, PANC68SC87S (Arabidopsis thaliana, UniProt Q9SX27 1-452, C68S;C87S).
T9 sequence: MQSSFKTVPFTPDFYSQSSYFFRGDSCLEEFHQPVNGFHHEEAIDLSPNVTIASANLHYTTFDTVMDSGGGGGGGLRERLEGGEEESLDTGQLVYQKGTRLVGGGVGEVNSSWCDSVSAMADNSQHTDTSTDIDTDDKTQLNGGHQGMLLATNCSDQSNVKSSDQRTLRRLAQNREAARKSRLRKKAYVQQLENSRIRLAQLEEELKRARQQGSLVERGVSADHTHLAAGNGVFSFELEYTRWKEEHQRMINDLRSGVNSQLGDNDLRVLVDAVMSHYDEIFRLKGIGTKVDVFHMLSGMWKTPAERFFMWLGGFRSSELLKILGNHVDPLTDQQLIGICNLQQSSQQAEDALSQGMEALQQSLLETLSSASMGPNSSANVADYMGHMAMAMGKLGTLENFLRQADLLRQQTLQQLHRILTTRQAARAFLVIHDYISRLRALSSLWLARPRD
Described as above.

B1: AAGAAT (dsDNA)
DNA 1: AAGAATCTTTGATCACGTCATCACTCAGATATT
DNA 2: AATATCTGAGTGATGACGTGATCAAAGATTCTT
For B1, the binding result in data set [1], in data set [2], in data set [3], in [4], in data set [5] and in data set [6] was “binds” throughout. Besides, the binding result in [7], in [8] and in data set [9] was “binds” each time.

B2: ΔbZIP (dsDNA)
DNA 1: AAGAATCTTTGATCAAATCATCACTCAGATATT
DNA 2: AATATCTGAGTGATGATTTGATCAAAGATTCTT
For B2, in [2], the binding result is given as “no binding”.
